Reference: patent US20200248181

System: gluten (wheat allergen)
Assay: SPR
Settings: 20-mer poly(dA) added at 5' end for SPR immobilization; 40 mM HEPES pH 7.5, 125 mM NaCl, 5 mM KCl, 1 mM MgCl2, 0.01% Tween 20; aptamer immobilized via poly(dA)/biotin-poly(dT)

Sequence | Kd [nM]
GAGGTTGGGTGGGGGAGGCAGCATGCGGGA [Aptamer 1] | 14.5
GAGGTTGGGTGGGGGAGG [Aptamer 2] | 18.6
